# B1: Zinc finger protein ZFPM1 (Mus musculus), O35615 (parent)
# chain: MSRRKQSNPRQIKRSLRDMEAGEEAKAMDSSPKEQEAPDPEAPAIEEPPSPPREDVSPPAVPAPPESPEDPEDMEGQELEMRPQDEEKEEKEEEAAMASPWSGPEELELALQDGQRCVRARLSLTEGLSWGPFYGSIQTRALSPEREEPGPAVTLMVDESCWLRMLPQVLTEEAANSEIYRKDDALWCRVTKVVPSGGLLYVRLVTEPHGAPRHPVQEPVEPGGLAPVHTDIQLLPQQAGMASILATAVINKDVFPCKDCGIWYRSERNLQAHLLYYCASRQRAGSPVSATEEKPKETYPNERVCPFPQCRKSCPSASSLEIHMRSHSGERPFVCLICLSAFTTKANCERHLKVHTDTLSGVCHNCGFISTTRDILYSHLVTNHMVCQPGSKGEIYSPGAGHPAAKLPPDSLAGFQQHSLMHSPLVPADKAPTPSSGLDSKAEVTNGETRVPPQNGGSSESPAAPRTIKVEAAEEPEATRASGPGEPGPQAPSRTPSPHSPNPVRVKTELSSPTPGSSPGPGELTMAGTLFLPQYVFSPDAGTTTVPTAPQASEILAKMSELVHNRLQQGAGSSGAAGTPTGLFSGTKGATCFECEITFNNINNFYVHKRLYCSGRRAPEDPPTVRRPKAATGPARAPAGAAAEPDPSRSSPGPGPREEEASGTTTPEAEAAGRGSEGSQSPGSSVDDAEDDPSRTLCEACNIRFSRHETYTVHKRYYCASRHDPPPRRPPAPTTAPGPAAPALTAPPVRTRRRRKLYELPAAGAPPPAAGPAPVPVVPSPTAELPSSPRPGSASAGPAPALSPSPVPDGPIDLSKRPRRQSPDAPTALPALADYHECTACRVSFHSLEAYLAHKKYSCPAAPLRTTALCPYCPPNGRVRGDLVEHLRQAHGLQVAKPAASPGAEPRTPAERAPRDSPDGRAPRSPSPAPENTPSDPADQGARTPSKGPPAPAPAPGGGGGHRYCRLCNIRFSSLSTFIAHKKYYCSSHAAEHVK
# Variants of: B1
# Details: with tacc3_mouse Tacc3, Q9JJ11
# Sequence of tacc3_mouse Tacc3, Q9JJ11 (Q9JJ11 whole entry): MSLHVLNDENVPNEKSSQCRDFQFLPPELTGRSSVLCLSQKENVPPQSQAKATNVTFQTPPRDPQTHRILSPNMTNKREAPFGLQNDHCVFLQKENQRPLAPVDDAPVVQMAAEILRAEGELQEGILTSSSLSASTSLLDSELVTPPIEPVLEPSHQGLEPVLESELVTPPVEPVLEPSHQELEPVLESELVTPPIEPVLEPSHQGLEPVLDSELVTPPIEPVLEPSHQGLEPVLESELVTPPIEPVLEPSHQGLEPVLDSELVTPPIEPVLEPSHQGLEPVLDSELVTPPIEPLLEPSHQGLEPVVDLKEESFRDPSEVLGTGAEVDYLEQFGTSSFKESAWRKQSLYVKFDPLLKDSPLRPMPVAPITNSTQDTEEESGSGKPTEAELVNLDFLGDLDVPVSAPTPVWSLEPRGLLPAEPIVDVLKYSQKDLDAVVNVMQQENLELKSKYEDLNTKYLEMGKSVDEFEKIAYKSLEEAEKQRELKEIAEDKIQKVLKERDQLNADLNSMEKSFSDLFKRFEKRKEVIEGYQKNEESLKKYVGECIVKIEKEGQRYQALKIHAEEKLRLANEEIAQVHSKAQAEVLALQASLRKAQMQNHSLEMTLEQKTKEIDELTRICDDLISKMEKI
row,Variant,effect of a mutation on the interaction
1,V354A,decreasing interaction
2,T343A,decreasing interaction

# Other lines, results leading:
row,effect of a mutation on the interaction,Variant
1,decreasing interaction,N347A
2,decreasing interaction,R350A
3,decreasing interaction,T344A

# — IntAct's records for PubMed 15234987
